Results published in patent US20220220215A1 (CRESCENDO BIOLOGICS, published 2022).

T1: human GITR-Fc (R&D Systems cat no. 689-GR) (human, UniProt Q9Y5U5 26-161)
T1 construct: also called Glucocorticoid-induced TNFR-related
T1 sequence (looked up): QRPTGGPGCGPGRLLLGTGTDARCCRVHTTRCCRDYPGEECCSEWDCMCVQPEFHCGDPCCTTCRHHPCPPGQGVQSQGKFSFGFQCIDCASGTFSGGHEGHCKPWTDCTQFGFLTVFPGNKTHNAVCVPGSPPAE

T2: human HVEM (R&D Systems cat no. HVM-H5258) (human, UniProt Q92956 39-202, limits assumed)
T2 sequence (looked up): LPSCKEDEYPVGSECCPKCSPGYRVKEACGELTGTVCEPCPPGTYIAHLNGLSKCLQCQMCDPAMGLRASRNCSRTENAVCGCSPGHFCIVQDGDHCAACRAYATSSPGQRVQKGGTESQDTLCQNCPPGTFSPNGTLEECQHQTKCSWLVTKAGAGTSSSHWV

T3: human OX40-Fc (R&D Systems cat no. 3388-OX) (human, UniProt P43489 29-216, limits assumed)
T3 sequence (looked up): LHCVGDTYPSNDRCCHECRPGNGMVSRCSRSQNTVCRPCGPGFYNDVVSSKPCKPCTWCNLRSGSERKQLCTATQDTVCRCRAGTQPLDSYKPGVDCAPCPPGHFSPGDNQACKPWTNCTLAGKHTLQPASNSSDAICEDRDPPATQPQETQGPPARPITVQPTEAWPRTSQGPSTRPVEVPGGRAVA


How the values were obtained:
[1] = target: T4, human CD137 expressed on cells (Jurkat human CD137 NF-kB luciferase reporter cells; human CD8+ T cells) (human, UniProt Q07011 24-255); assay: cell-based or functional assay
[2] = target: T5, recombinant Fc-tagged ectodomain of cynomolgus PD1 (Acro Biosystems PD1-C5254) (cynomolgus macaque, UniProt B0LAJ3 25-170); assay: SPR, Biacore 8K, single-cycle kinetics; Fc-tagged ectodomain captured on Protein G chip; 1:1 model
T5 construct: Bought protein; also called Cyno PD1; cynomolgus macaque PD1; not shown: Fc tag and any linker to it
Outline: (§1)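 Single-cycle kinetics: Humabody VH constructs injected 90 s at low to high nanomolar concentrations over captured Fc-tagged ectodomains. Surface regenerated with 10 mM glycine pH 1.5. Kinetics fitted to a 1:1 binding model, including two-PD-1-arm constructs.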

[3] = target: T6, recombinant Fc-tagged ectodomain of cynomolgus CD137 (R&D S9324-4b) (cynomolgus macaque, UniProt A9YYE7 24-186); assay: as above
T6 construct: Bought protein; also called Cyno CD137; cynomolgus macaque CD137; not shown: Fc tag and any linker to it
Outline: as §1

[4] = target: T7, recombinant Fc-tagged ectodomain of human CD137 (Acro Biosystems 41B-H5258) (human, UniProt Q07011 24-186); assay: as above
T7 construct: Bought protein; not shown: Fc tag
Outline: as §1

[5] = target: T8, recombinant Fc-tagged ectodomain of human PD1 (Acro Biosystems PD1-H5257) (human, UniProt Q15116 25-170); assay: as above
T8 construct: Bought protein; not shown: Fc tag
Outline: as §1

[6] = target: T4, human CD137 expressed on cells (Jurkat …); assay: cell-based or functional assay; remark: listed apart in the source
[7] = target: human CD40 (R&D Systems cat no. CDO-H5253) (human, UniProt P25942 21-193, limits assumed); assay: ELISA, plate-coated human CD40; legend: No binding (-)
Description: (§2) Specificity of binding for CD137 over the tumour necrosis factor receptor family members OX40, GITR (Glucocorticoid-induced TNFR-related), CD40 and HVEM was determined using an ELISA assay. Nunc Maxisorp plates were coated with 1 ug/ml human CD137-Fc recombinant protein (Acro Biosystems 41B-H5258), human GITR-Fc (R&D Systems cat no. 689-GR) human OX40-Fc (R&D Systems cat no. 3388-OX), human CD40 (R&D Systems cat no. CDO-H5253), human HVEM (R&D Systems cat no. HVM-H5258) in PBS overnight at 4° C. then washed twice with PBS. Non-specific protein interactions were blocked by incubation with 1% (w/v) skimmed milk powder (Marvel®) in PBS/0.1% Tween-20 for 1 hour at room temperature. Plates were washed twice with PBS then VH or antibody control (1 ug/ml) added for 1 hour at room temperature. Following three washes with PBS/0.1% Tween-20 a 1:1000 dilution of anti His-HRP (VH detection) or anti mouse-HRP (positive control mouse monoclonal antibody detection) was added in 1% Marvel/PBS/0.1% Tween-20. The detection antibodies were allowed to bind for 1 hour at room temperature then the plates were washed twice in PBS/0.1% Tween-20 and once in PBS. The ELISA was developed using TMB substrate and the reaction was stopped by the addition of 50 ul 0.5M H₂SO₄ solution. The absorbance at 450 nm was measured using the BMG Pherastar.

[8] = target: T1, human GITR-Fc (R&D Systems cat no. …); assay: ELISA, plate-coated human GITR-Fc; legend: No binding (-)
Description: as §2

[9] = target: T2, human HVEM (R&D Systems cat no. …); assay: ELISA, plate-coated human HVEM; legend: No binding (-)
Description: as §2

[10] = target: T9, human CD137 expressed on CHO cells (human, UniProt Q07011 18-255); assay: FMAT/Mirrorball on CHO huCD137 cells
T9 construct: also called CHO huCD137; CHO human CD137 cells
Outline: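 His-tagged VH molecules bound to CHO cells expressing human PD-1 or human CD137, with CHO parent cells as control, in PBS pH 7.4, 0.1% BSA, 0.05% sodium azide. Read by FMAT on Mirrorball (ex 488/640 nm); binding taken as FL2 median fluorescence intensity of FL5-gated events.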

[11] = target: T10, Rhesus CD137-Fc tagged protein (rhesus, UniProt H9Z8K9 24-186); assay: BLI (Octet RED384), CD137-Fc on Protein G sensor, 1:1 model
T10 construct: extracellular domain; The Octet paragraph gives no catalogue number; also called rhCD137-Fc
Description: Binding kinetics of purified monovalent VH molecules were measured on a ForteBio Octet RED 384 instrument. Human and Rhesus CD137-Fc tagged protein was diluted to 5 μg/ml in kinetics buffer (0.05% Tween, 1×PBS) and coupled to Protein G biosensors (ForteBio cat no. 18-5082) via the Fc tag. VH were serially diluted (typically 1:2 dilution series starting with 200 nM, VH at the highest concentration) and binding to the CD137-Fc-coupled Protein G biosensors measured. Binding kinetics were determined from the (blank subtracted) sensor gram trace using 1:1 binding models and ForteBio Octet Data Analysis 9.0 software. Example kinetic and binding affinity data obtained is shown Table 18 (monovalent VH).

[12] = target: T3, human OX40-Fc (R&D Systems cat no. …); assay: ELISA, plate-coated human OX40-Fc; legend: No binding (-)
Description: as §2

Chain of human CD40 (R&D Systems cat no. CDO-H5253) (P25942 21-193 limits assumed): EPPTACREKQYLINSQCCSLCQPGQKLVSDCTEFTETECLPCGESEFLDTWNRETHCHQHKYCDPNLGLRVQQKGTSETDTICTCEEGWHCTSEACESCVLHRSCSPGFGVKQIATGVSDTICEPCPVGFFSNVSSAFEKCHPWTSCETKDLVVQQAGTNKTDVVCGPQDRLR

CD8+ T-cell activation assay - IL-2 release, EC50 [1] [nM]	Kd [2] [nM]	koff [2] [s⁻¹]	kon [2] [M⁻¹ s⁻¹]	Kd [3] [nM]	koff [3] [s⁻¹]	kon [3] [M⁻¹ s⁻¹]	Kd [4] [nM]	koff [4] [s⁻¹]	kon [4] [M⁻¹ s⁻¹]	Kd [5] [nM]	koff [5] [s⁻¹]	kon [5] [M⁻¹ s⁻¹]	Jurkat-CD137/CHO-PD-1 Reporter Assay EC50 [6] [nM]	Binder	further results
0.199	17.4	0.00539	310000	1.03	0.000255	247000	0.652	0.000185	283000	7.07	0.00244	345000	0.02	TPP-1290 PD138G7(G109D)-6GS-CD137A-6GS-HSA2 (bispecific antibody) EVQLVESGGGVVRPGGSLRLSCAASGFTFDDYAMSWVRQAPGKGLEWVSGITWNGGSTGYADSVKDRFTISRDNAKNSLYLQMNSLRAEDTALYYCVRDKYSYAWSYDDFDIWGQGTMVTVSSGGGGSGGGGSGGGGSGGGGSGGGGSGGGGSEVQLVESGGGLVQPGGSLRLSCAASGFTLSNYWMNWVRQAPGKGLEWVANINQDGSERYYVDSVKGRFTISRDNAKNSLYLQMNSLRAEDTAVYYCARGGEGYGVDHYGLDVSGQGTTVTVSSGGGGSGGGGSGGGGSGGGGSGGGGSGGGGSEVQLVESGGGLVKPGGSLRLSCAASGFTFSNYNMNWVRQAPGKGLEWVSSISSAGTHIYYADSVKGRFTISRDNAKNSLYLQMNSLRAEDTAVYYCARDPHSTGWYKDFDYWGQGTLVTVSS	–
0.146	3.41	0.000407	119000	4.34	0.000226	52200	2.57	0.000151	58600	2.31	0.000212	91500	0.0113	TPP-1293 (PDBlocker1.92-6GS-CD137A-6GS-HSA2) (bispecific antibody, The chain is therefore built from the parts named in the composition) EVQLVESGGGLVKPGGSLRLSCAASGFTFSDESMTWMRQAPGKGLEWVSYISSGGGVKFYADSVKGRFTISRDNAKNSLYLQMNSLRAEDTAVYYCAREAPLRLGESPHDAFDISGQGTMVTVSSGGGGSGGGGSGGGGSGGGGSGGGGSGGGGSEVQLVESGGGLVQPGGSLRLSCAASGFTLSNYWMNWVRQAPGKGLEWVANINQDGSERYYVDSVKGRFTISRDNAKNSLYLQMNSLRAEDTAVYYCARGGEGYGVDHYGLDVSGQGTTVTVSSGGGGSGGGGSGGGGSGGGGSGGGGSGGGGSEVQLVESGGGLVKPGGSLRLSCAASGFTFSNYNMNWVRQAPGKGLEWVSSISSAGTHIYYADSVKGRFTISRDNAKNSLYLQMNSLRAEDTAVYYCARDPHSTGWYKDFDYWGQGTLVTVSS	–
–	–	–	–	–	–	–	–	–	–	–	–	–	–	003BB172-E01 (VHH, also called 003BB1172-E01) VHH: EVQLVESGGGLVQPGGSLRLSCAASGFTFSNYGMHWVRQAPGKRLEWVAVISNDGNTKTYADSVKGRFTISRDNSKNMLYLQMTSLRTEDTAVYYCAQDETTTVTASYYFDYWGQGTLVTVSS	binding result [7]: no binding (tested: 1 ug/ml); binding result [8]: no binding (tested: 1 ug/ml); binding result [9]: no binding (tested: 1 ug/ml); EC50 [10]: 1.73 nM; Kd [11]: 27.5 nM; koff [11]: 0.00131 s⁻¹; kon [11]: 47800 M⁻¹ s⁻¹; binding result [12]: no binding (tested: 1 ug/ml)
